Assay [1] has as its target _(strep)RcpA, N-terminally strep-tagged RcpA (P. aeruginosa PAO1) (UniProt Q9HW96). As to the kind of experiment: pull-down; RcpA constructs with the strep tag at the N-terminus co-expressed with TadD in E. coli; single strep tag pulldown; SDS-PAGE, Western blot and negative stain EM 2D class averages.
Assay [2] has as its target RcpA_(strep), C-terminally strep-tagged RcpA (P. aeruginosa PAO1) (UniProt Q9HW96). The experiment in a line: cryo-EM structure; RcpA_(strep)-TadD_(FLAG) complex co-expressed in E. coli, double pulldown (StrepTrap, ANTI-FLAG M2), 0.06% DDM; graphene oxide support and tilted collection; C13 map at 2.7 Å, focussed TadD map; on holey carbon grids TadD was stripped off.
In assay [3] the target is TadD, native sequence, tag not given (P. aeruginosa PAO1). The experiment in a line: pull-down; cysteine mutants of RcpA and TadD co-expressed in E. coli, single strep tag pulldown; RcpA-TadD particles counted on five negative stain EM micrographs per mutant (Laplacian-of-Gaussian blob detection), SDS-PAGE.
Assay [4] addresses RcpA, endogenous in P. aeruginosa PAO1 (P. aeruginosa PAO1 (endogenous)) (UniProt Q9HW96). The experiment in a line: pull-down; P. aeruginosa PAO1 with chromosomal tadD_(strep), native expression levels; membranes extracted with DDM; Strep-Tactin Sepharose; eluate seen by anti-strep Western blot and negative stain EM 2D class averages.
In assay [5] the target is TadD D139C (P. aeruginosa PAO1). As to the kind of experiment: pull-down; cysteine mutants of RcpA and TadD co-expressed in E. coli, single strep tag pulldown; RcpA-TadD particles counted on five negative stain EM micrographs per mutant (Laplacian-of-Gaussian blob detection), SDS-PAGE.

“And” between values parts separate entries of the source, which are not always exact repeats. Equal values may be shown once.

For orientation: stoichiometry N means a count of units in the complex or per binding partner.

“_(strep)RcpA, N-terminally strep-tagged RcpA (from UniProt Q9HW96 1-416) (natural protein)”: the stoichiometry N in assay [1] was 13 and 14. As for “RcpA_(strep), C-terminally strep-tagged RcpA (from UniProt Q9HW96 1-416) (natural protein)”, in assay [2], the stoichiometry N was 13 and 14.

For the substance “RcpA S415C (from UniProt Q9HW96 1-416) (natural protein)”, in assay [3], the RcpA-TadD complex relative to native levels was determined as 10% and the RcpA-TadD particles relative to native levels turned out to be 14%. As for “RcpA, endogenous in P. aeruginosa PAO1 (from UniProt Q9HW96 1-416) (natural protein)”, in assay [4], the stoichiometry N was 13 and 14.

Regarding “RcpA L414C (from UniProt Q9HW96 1-416) (natural protein)”, the RcpA-TadD particles relative to native levels in assay [3] is 9%.

In the case of “RcpA, native sequence, in the cysteine cross-linking assay (tag not stated) (from UniProt Q9HW96 1-416) (natural protein)”, the RcpA-TadD particles relative to native TadD in assay [5] was determined as 2%.

The values above are taken from publication PMC10499894.
